{"source": "the DeepSol protein solubility set", "data": [{"assay": "soluble on expression in E. coli; label from the status in PepcDB or PDB records", "values": [{"sequence": "MGSDKIHHHHHHMADKKRLDQLVLERGLVESREKAKVLILAGKVLVNGERVTKASKLVPEDANVELLEEPKYVSRGGYKLESAFESFKIDVSGKVACDIGASTGGFTDFLLQRGAKKVYAVDVGYGQLHWKLRNDPRVVVMEKVNARYLNPDDLGEKVDVVTCDVSFISLKKIIPAISRILKNIGDAVLLVKPQFEAPRKFVKKGIVKDPGVHLEVLEEIRKSLIENGFVVKGCCFSKIKGTEGNIEYFFWVKKEGENAEIDLRKIVEEAWRFFGERER", "soluble on expression in E. coli": "not soluble"}, {"sequence": "SMKAIVVINLVKINKKIIPDKIYVYRLFNDPEEELQKEGYSIYRLAYENVGIVIDPENLIIATTKELEYEGEFIPEGEISFSELRNDYQSKLVLRLLKENGIGEYELSKLLRKFRKPKTFGDYKVIPSVEMSVIKHDEDFYLVIHIIHQIQSMKTLWELVNKDPKELEEFLMTHKENLMLKDIASPLKTVYKPCFEEYTKKPKLDHNQEIVKYWYNYHIERYWNTPEAKLEFYRKFGQVDLKQPAILAKFASKIKKNKNYKIYLLPQLVVPTYNAEQLESDVAKEILEYTKLMPEERKELLENILAEVDSDIIDKSLSEIEVEKIAQELENKIRVRDDKGNSVPISQLNVQKSQLLLWTNYSRKYPVILPYEVPEKFRKIREIPMFIILDSGLLADIQNFATNEFRELVKSMYYSLAKKYNSLAKKARSTNEIGLPFLDFRGKEKVITEDLNSDKGIIEVVEQVSSFMKGKELGLAFIAARNKLSSEKFEEIKRRLFNLNVISQVVNEDTLKNKRDKYDRNRLDLFVRHNLLFQVLSKLGVKYYVLDYRFNYDYIIGIDVAPMKRSEGYIGGSAVMFDSQGYIRKIVPIKIGEQRGESVDMNEFFKEMVDKFKEFNIKLDNKKILLLRDGRITNNEEEGLKYISEMFDIEVVTMDVIKNHPVRAFANMKMYFNLGGAIYLIPHKLKQAKGTPIPIKLAKKRIIKNGKVEKQSITRQDVLDIFILTRLNYGSISADMRLPAPVHYAHKFANAIRNEWKIKEEFLAEGFLYFV", "soluble on expression in E. coli": "soluble"}, {"sequence": "MVLSHAVSESDVSVHSTFASRYVRTSLPRFKMPENSIPKEAAYQIINDELMLDGNPRLNLASFVTTWMEPECDKLIMSSINKNYVDMDEYPVTTELQNRCVNMIAHLFNAPLEEAETAVGVGTVGSSEAIMLAGLAFKRKWQNKRKAEGKPVDKPNIVTGANVQVCWEKFARYFEVELKEVKLSEGYYVMDPQQAVDMVDENTICVAAILGSTLNGEFEDVKLLNDLLVEKNKETGWDTPIHVDAASGGFIAPFLYPELEWDFRLPLVKSINVSGHKYGLVYAGIGWVIWRNKEDLPEELIFHINYLGADQPTFTLNFSKGSSQVIAQYYQLIRLGHEGYRNVMENCRENMIVLREGLEKTERFNIVSKDEGVPLVAFSLKDSSCHTEFEISDMLRRYGWIVPAYTMPPNAQHITVLRVVIREDFSRTLAERLVIDIEKVMRELDELPSRVIHKISLGQEKSESNSDNLMVTVKKSDIDKQRDIITGWKKFVADRKKTSGIC", "soluble on expression in E. coli": "soluble"}, {"sequence": "MGESIPLAAPVPVEQAVLETFFSHLGIFSYDKAKDNVEKEREADKSAGGSWLSLLAALAHLAAAEKVYHSLTYLGQKLGGQSFFSRKDSIRTIYTSLHNELKKVVTGRGALGGTAPHVEELLSHLSEQLCFFVQARMEIADFYEKMYTLSTQKFINAEELVGLLDAIMKKYSSRFHHPILSPLESSFQLEVDVLCHLLKAQAQVSEWKFLPSLVNLHSAHTKLQTWGQIFEKQRETKKHLFGGQSQKAVQPPHLFLWLMKLKNMLLAKFSFYFHEALSRQTTASEMKTLTAKANPDFFGKISSFIRKYDAANVSLIFDNRGSESSQGHGYHHPHSYREAPKGVDQYPAVVSLPSDRPVMHWPNVIMIMTDRTSDLNSLEKVVHFYDDKVQSTYFLTRPEPHFTIVIIFESKKSERDSHFISFLNEVSLALKNPKVFASLKPGSKGSCYQCNYFVAFCLDYSKLLLQRK", "soluble on expression in E. coli": "not soluble"}, {"sequence": "MNFESTRRRLTEKQADTVDRLTRAAVEVLREEGFAGLTVRSVAGIAGVAPATAYTYFSSKEHLVAEVFWRRLAGSPQPADDGLDRTGRVVAVLRHIALLVADEPELAGAVTNALLGRDPDVEHLRARIGLEIRDRLATALGEGHDPDVLEALELLYAGGLVRAGMGYGSYAQFADRLETSAKLILE", "soluble on expression in E. coli": "not soluble"}, {"sequence": "KKPMFLCVLSSTKTAHIPKLSAAGKTAELTDYTPAGDAELMETGNIISVPVLPMTPPYDTPTPAIMTRSALKLTDAPYHFINSGLIVTPDVPCIDLKANPGEDIREPVAVMDVQGIYERAKLLAKRLRNQADHVVIGESIPGGTTTAMGVLMALGYNGNVSSSADENPLELKKQVVEEGMKASGLTFGCLKDDPMKAIACMGDPMMPAVAGLVAGFQDTDTSVVLAGGTQMAAVYALIKHMGLNTEKIAIATTRYVVEDKSANFIQLTTTLGVPVVYVADPGFGKSSMKGLHRYETGTIKEGAGAGGAMYLAG", "soluble on expression in E. coli": "not soluble"}]}]}
